The target in the data set is Re-PAX5 P80R (Homo sapiens, UniProt Q02548 1-391, P80R). Briefly: EMSA. (A gel shift assay detects complexes by their altered migration in electrophoresis.)
Sequence of Re-PAX5 P80R (Q02548 whole entry P80R): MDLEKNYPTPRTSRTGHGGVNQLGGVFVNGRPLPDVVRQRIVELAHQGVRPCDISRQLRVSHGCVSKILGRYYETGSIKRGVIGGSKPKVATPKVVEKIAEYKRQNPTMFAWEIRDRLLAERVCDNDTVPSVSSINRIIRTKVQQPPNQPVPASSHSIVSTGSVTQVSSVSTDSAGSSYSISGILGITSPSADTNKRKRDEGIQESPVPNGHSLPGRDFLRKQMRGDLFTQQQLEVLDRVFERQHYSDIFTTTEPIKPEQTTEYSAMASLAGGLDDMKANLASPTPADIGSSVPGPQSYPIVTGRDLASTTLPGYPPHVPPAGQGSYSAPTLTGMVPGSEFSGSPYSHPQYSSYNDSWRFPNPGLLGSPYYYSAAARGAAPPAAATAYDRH

B1: Probe-1 (GINS1 promoter site1) (dsDNA)
DNA 1: GGTGCGGTGGCTCACGCTGTAATTCC
DNA 2: GGAATTACAGCGTGAGCCACCGCACC
On to B1, for which the binding result is reported as “no binding”.

Values taken from publication PMC10394140.
